These results are taken from paper PMC4824113.

Values joined by “and” are separate entries in the source; they are usually repeats but may differ in a detail not shown here. Identical values can stand only once.

Usually Kd stands for the concentration at which binding is half-saturated.

Series [1] has as its target TaXPD 100C-238C C (crosslinked) (Thermoplasma acidophilum) (UniProt Q9HM14). The series can be described thus: fluorescence anisotropy. The following applies: Anisotropy: 20 mM MES pH 6.4, 1 mM DTT, 1 mM MgCl2, 100 nM DNA, +/- 1 mM AMPPNP, temperature not stated; trapping: 20 mM Tris-HCl pH 8.3-8.5, 50 mM NaCl, 4 C …. In general terms: Fluorescence polarisation rises when a labelled molecule tumbles more slowly, as on binding a larger partner.

Series [2] deals with TaXPD 107C-312C C (crosslinked) (Thermoplasma acidophilum) (UniProt Q9HM14). The series can be described thus: fluorescence anisotropy. The following applies: Anisotropy: 20 mM MES pH 6.4, 1 mM DTT, 1 mM MgCl2, 100 nM DNA, +/- 1 mM AMPPNP, temperature not stated; trapping: 20 mM Tris-HCl pH 8.3-8.5, 50 mM NaCl, 4 C ….

With “TACGACAGAGAAGAGACGAGCATTTTTGCTCGGAAGGA [3'-fluorescein hairpin DNA with 5' overhang]”, the Kd is 600 nM and 500 nM in series [1]; 300 nM and 400 nM in series [2].
